Assay results taken from patent US20240117018A1.

Tests used:
Assay in all cases: cell-based or functional assay
[1] = target: HIV-1 Env of pseudovirus BF1266.431a (HIV-1)
[2] = target: HIV-1 Env of pseudovirus CNE21 (HIV-1)
[3] = target: HIV-1 Env of pseudovirus ZM197M.PB7 (HIV-1)
[4] = target: HIV-1 Env of pseudovirus CAAN5342.A2 (HIV-1)
[5] = target: HIV-1 Env of pseudovirus RHPA4259.7 (HIV-1)
[6] = target: HIV-1 Env of pseudovirus CNE5 (HIV-1)
[7] = target: HIV-1 Env of pseudovirus 6244_13_B5_4576 (HIV-1)
[8] = target: HIV-1 Env of pseudovirus CNE19 (HIV-1)
[9] = target: HIV-1 Env of pseudovirus Q23.17 (HIV-1)
[10] = target: HIV-1 Env of pseudovirus 6535.3 (HIV-1)
[11] = target: HIV-1 Env of pseudovirus 1054_07_TC4_1499 (HIV-1)
[12] = target: HIV-1 Env of pseudovirus HIV-16845-2.22 (HIV-1)
[13] = target: HIV-1 Env of pseudovirus CNE58 (HIV-1)
[14] = target: HIV-1 Env of pseudovirus HIV-16055-2.3 (HIV-1)
[15] = target: HIV-1 Env of pseudovirus Q461.e2 (HIV-1)
[16] = target: HIV-1 Env of pseudovirus CNE20 (HIV-1)
[17] = target: HIV-1 Env of pseudovirus Ce703010054_2A2 (HIV-1)
[18] = target: HIV-1 Env of pseudovirus 246F C1G (HIV-1)
[19] = target: HIV-1 Env of pseudovirus 7030102001E5(Rev-) (HIV-1)
[20] = target: HIV-1 Env of pseudovirus SC422661.8 (HIV-1)
[21] = target: HIV-1 Env of pseudovirus C2101.c01 (HIV-1)
[22] = target: HIV-1 Env of pseudovirus Ce0682_E4 (HIV-1)
[23] = target: HIV-1 Env of pseudovirus 62357_14_D3_4589 (HIV-1)
[24] = target: HIV-1 Env of pseudovirus Q842.d12 (HIV-1)
[25] = target: HIV-1 Env of pseudovirus 6240_08_TA5_4622 (HIV-1)
[26] = target: HIV-1 Env of pseudovirus SC05_8C11_2344 (HIV-1)
[27] = target: HIV-1 Env of pseudovirus 1056_10_TA11_1826 (HIV-1)
[28] = target: HIV-1 Env of pseudovirus Du422.1 (HIV-1)
[29] = target: HIV-1 Env of pseudovirus 1394C9G1(Rev-) (HIV-1)
[30] = target: HIV-1 Env of pseudovirus HIV-001428-2.42 (HIV-1)
[31] = target: HIV-1 Env of pseudovirus CAP45.2.00.G3 (HIV-1)
[32] = target: HIV-1 Env of pseudovirus 1006_11_C3_1601 (HIV-1)
[33] = target: HIV-1 Env of pseudovirus Ce0393_C3 (HIV-1)
[34] = target: HIV-1 Env of pseudovirus ZM249M.PL1 (HIV-1)
[35] = target: HIV-1 Env of pseudovirus TRJO4551.58 (HIV-1)
[36] = target: HIV-1 Env of pseudovirus Ce1172_H1 (HIV-1)

Substance: PGDM1400 (antibody)
- neutralization IC50 [1]: 0.003 µg/mL
- neutralization IC80 [1]: 0.011 µg/mL
- neutralization IC50 [2]: < 0.001 µg/mL
- neutralization IC80 [2]: 0.002 µg/mL
- neutralization IC50 [3]: 0.063 µg/mL
- neutralization IC80 [3]: 0.285 µg/mL
- neutralization IC50 [4]: > 50 µg/mL
- neutralization IC80 [4]: > 50 µg/mL
- neutralization IC50 [5]: 0.447 µg/mL
- neutralization IC80 [5]: 2.19 µg/mL
- IC50 (Titer in TZM.bl cells) [6]: < 0.001 µg/mL
- IC80 (Titer in TZM.bl cells) [6]: < 0.001 µg/mL
- neutralization IC50 [7]: > 50 µg/mL
- neutralization IC80 [7]: > 50 µg/mL
- neutralization IC50 [8]: 0.001 µg/mL
- neutralization IC80 [8]: 0.007 µg/mL
- neutralization IC50 [9]: < 0.001 µg/mL
- neutralization IC80 [9]: 0.003 µg/mL
- neutralization IC50 [10]: > 50 µg/mL
- neutralization IC80 [10]: > 50 µg/mL
- neutralization IC50 [11]: > 50 µg/mL
- neutralization IC80 [11]: > 50 µg/mL
- neutralization IC50 [12]: > 50 µg/mL
- neutralization IC80 [12]: > 50 µg/mL
- neutralization IC50 [13]: 0.004 µg/mL
- neutralization IC80 [13]: 0.014 µg/mL
- neutralization IC50 [14]: < 0.001 µg/mL
- neutralization IC80 [14]: 0.003 µg/mL
- neutralization IC50 [15]: 0.089 µg/mL
- neutralization IC80 [15]: 0.572 µg/mL
- neutralization IC50 [16]: 0.004 µg/mL
- neutralization IC80 [16]: 0.014 µg/mL
- neutralization IC50 [17]: 0.015 µg/mL
- neutralization IC80 [17]: 0.26 µg/mL
- neutralization IC50 [18]: > 50 µg/mL
- neutralization IC80 [18]: > 50 µg/mL
- neutralization IC50 [19]: > 50 µg/mL
- neutralization IC80 [19]: > 50 µg/mL
- neutralization IC50 [20]: 0.436 µg/mL
- neutralization IC80 [20]: 6.53 µg/mL
- IC50 (Titer in TZM.bl cells) [21]: 0.006 µg/mL
- IC80 (Titer in TZM.bl cells) [21]: 0.021 µg/mL
- neutralization IC50 [22]: 0.01 µg/mL
- neutralization IC80 [22]: 0.043 µg/mL
- neutralization IC50 [23]: > 50 µg/mL
- neutralization IC80 [23]: > 50 µg/mL
- neutralization IC50 [24]: < 0.001 µg/mL
- neutralization IC80 [24]: 0.002 µg/mL
- neutralization IC50 [25]: > 50 µg/mL
- neutralization IC80 [25]: > 50 µg/mL
- neutralization IC50 [26]: 1.26 µg/mL
- neutralization IC80 [26]: 3.59 µg/mL
- neutralization IC50 [27]: 3.26 µg/mL
- neutralization IC80 [27]: 11.8 µg/mL
- neutralization IC50 [28]: 0.694 µg/mL
- neutralization IC80 [28]: > 50 µg/mL
- neutralization IC50 [29]: < 0.001 µg/mL
- neutralization IC80 [29]: 0.004 µg/mL
- neutralization IC50 [30]: < 0.001 µg/mL
- neutralization IC80 [30]: 0.027 µg/mL
- neutralization IC50 [31]: < 0.001 µg/mL
- neutralization IC80 [31]: 0.002 µg/mL
- neutralization IC50 [32]: 4.32 µg/mL
- neutralization IC80 [32]: > 50 µg/mL
- neutralization IC50 [33]: 0.015 µg/mL
- neutralization IC80 [33]: 0.044 µg/mL
- neutralization IC50 [34]: 0.016 µg/mL
- neutralization IC80 [34]: 0.701 µg/mL
- neutralization IC50 [35]: > 50 µg/mL
- neutralization IC80 [35]: > 50 µg/mL
- neutralization IC50 [36]: 0.021 µg/mL
- neutralization IC80 [36]: 0.06 µg/mL
